Assay results as given in publication PMC9599700, “Biochemical and Structural Characterization of Chi-Class Glutathione Transferases: A Snapshot on the Glutathione Transferase Encoded by sll0067 Gene in the Cyanobacterium Synechocystis sp. Strain PCC 6803” (Biomolecules, 2022).
Where a chain is given by its changes, count along the chain named. Names may count otherwise.

How the values were obtained:
SynGSTC1 (Sll0067) [1] = target: T1, SynGSTC1 (Sll0067) (Synechocystis sp. PCC 6803, UniProt Q55139, S10C); experiment: NADPH/glutathione reductase-coupled thiol-transferase assay, […] nm; format: biochemical; conditions: fixed saturating GSH; 200 µM NADPH; 30 mM Tris-HCl pH 8.0; 25 °C; read-out: HED
T1 construct: gene gst; Ni-NTA and size exclusion; about 180 residues; two-fold dimer in crystal
T1 sequence (Q55139 1-184 S10C): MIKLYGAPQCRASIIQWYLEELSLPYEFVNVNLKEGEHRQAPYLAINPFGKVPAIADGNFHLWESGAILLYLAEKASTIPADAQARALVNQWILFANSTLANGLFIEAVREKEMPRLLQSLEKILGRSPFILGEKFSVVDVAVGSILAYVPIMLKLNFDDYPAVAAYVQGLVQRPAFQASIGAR

SynGSTC1 (Sll0067) [2] = target: T2, SynGSTC1 (Sll0067) (Synechocystis sp. PCC 6803, UniProt Q55139); experiment: GSH-conjugation assay, spectrophotometric […] nm, Michaelis-Menten fit; format: biochemical; conditions: fixed saturating GSH; 30 mM Tris-HCl pH 8.0, 1 mM EDTA; 25 °C
T2 construct: gene gst; Ni-NTA and size exclusion; about 180 residues; two-fold dimer in crystal
T2 sequence (Q55139 1-184): T1 sequence (Q55139 1-184 S10C) with C10S

[3] = target: glutathione transferase chi1 from Synechocystis sp. PCC 6803 (SynGSTC1), wild-type (Synechocystis sp. PCC 6803); experiment: crystal structure; co-crystallised with 10 mM glutathione and 1 mM TCEP, microbatch under oil at 4 °C; space group P4(3)2(1)2, two polypeptide chains in the asymmetric unit
SynGSTC1 (Sll0067) [4] = target: T2, SynGSTC1 (Sll0067); experiment: GSH-conjugation assay, spectrophotometric […] nm, Michaelis-Menten fit; format: biochemical; conditions: fixed saturating GSH; 100 mM phosphate pH 6.5; 25 °C
purified protein [5] = substrate: CCCC(=O)Oc1ccc([N+](=O)[O-])cc1; experiment: purified protein; format: biochemical, Synechocystis sp. PCC 6803; conditions: fixed saturating GSH, 30 mM Tris-HCl pH 8.0, 1 mM EDTA, 25 °C
purified protein [6] = substrate: S=C=NCCc1ccccc1; experiment: purified protein; format: biochemical, Synechocystis sp. PCC 6803; conditions: fixed saturating GSH, 100 mM phosphate pH 6.5, 25 °C
purified protein [7] = substrate: CC(C)(OO)c1ccccc1; experiment: purified protein; conditions: fixed GSH, 200 µM NADPH, 30 mM Tris-HCl pH 8.0, 25 °C

Work on OCCSSCCO [2-hydroxyethyl disulfide] yielded a Km (SynGSTC1 (Sll0067) [1]) of 3.3 ± 0.4 µM.

With O=[N+]([O-])c1ccc(Cl)c([N+](=O)[O-])c1 [1-chloro-2,4-dinitrobenzene] the Km (SynGSTC1 (Sll0067) [2]) was 3790 ± 772 µM.

With “glutathione transferase chi1 from Synechocystis sp. PCC 6803 (SynGSTC1), wild-type (enzyme)” the stoichiometry N [3] was 2.

For S=C=NCc1ccccc1 [benzyl-isothiocyanate], the Km (SynGSTC1 (Sll0067) [4]) was 82 ± 10 µM.

B1: SynGSTC1 (Sll0067) (Synechocystis sp. PCC 6803 substr. Kazusa) (protein)
chain: T1 sequence (Q55139 1-184 S10C) with C10S
notes: Ni-NTA and size exclusion; about 180 residues; two-fold dimer in crystal
In the case of B1, the Km (purified protein [5]) is reported as 162.5 ± 18.3 µM, the kcat (purified protein [5]) is reported as 0.48 ± 0.2 s⁻¹ and the Km (purified protein [6]) is reported as 33.8 ± 2.5 µM. For the same molecule, the kcat (purified protein [6]) was 12.6 ± 0.2 s⁻¹, the kcat/Km (purified protein [6]) was 373000 ± 6000 M⁻¹ s⁻¹ and the Km (purified protein [7]) was 1508.0 ± 191.0 µM. For the same molecule, the kcat (purified protein [7]) was 0.91 ± 0.06 s⁻¹.

B2: SynGSTC1 (Sll0067) (Synechocystis sp. PCC 6803 substr. Kazusa; S10A) (protein)
chain: T1 sequence (Q55139 1-184 S10C) with C10A
notes: as for B1
Work on B2 yielded a Km (purified protein [6]) of 89.7 ± 6.4 µM, a kcat (purified protein [6]) of 2.6 ± 0.05 s⁻¹ and a kcat/Km (purified protein [6]) of 28900 ± 600 M⁻¹ s⁻¹.

B3: SynGSTC1 (Sll0067) (Synechocystis sp. PCC 6803 substr. Kazusa; R11A) (protein)
chain: T1 sequence (Q55139 1-184 S10C) with C10S, R11A
notes: as for B1
Molecule B3 has a Km (purified protein [6]) of 108.4 ± 6.0 µM, a kcat (purified protein [6]) of 0.17 ± 0.003 s⁻¹ and a kcat/Km (purified protein [6]) of 1530 ± 20 M⁻¹ s⁻¹.

B4: SynGSTC1 (Sll0067) (Synechocystis sp. PCC 6803 substr. Kazusa; S10C) (protein)
chain: T1 sequence (Q55139 1-184 S10C)
notes: as for B1
Molecule B4 has a Km (purified protein [6]) of 33.0 ± 3.0 µM, a kcat (purified protein [6]) of 1.19 ± 0.02 s⁻¹ and a kcat/Km (purified protein [6]) of 36000 ± 600 M⁻¹ s⁻¹.

B5: SynGSTC1 (Sll0067) (Synechocystis sp. PCC 6803 substr. Kazusa; S10T) (protein)
chain: T1 sequence (Q55139 1-184 S10C) with C10T
notes: as for B1
B5 gave a Km (purified protein [6]) of 33.6 ± 2.6 µM, a kcat (purified protein [6]) of 7.2 ± 0.1 s⁻¹ and a kcat/Km (purified protein [6]) of 214000 ± 4000 M⁻¹ s⁻¹.
